# Data from patent US20200207835A1, “SRCP1-BASED THERAPY FOR DISEASES ASSOCIATED WITH PROTEIN AGGREGATION” (THE MEDICAL COLLEGE OF WISCONSIN, INC., priority 2017, published 2020).
# B1: SRCP1: Dictyostelium discoideum serine-rich chaperone protein 1 (SEQ ID NO:2), expressed in cells as RFP-tagged construct (protein)
# chain: MTILSTFTSFSNPPKLNKSSFSSSTGSSLSMGSNSFAWGGGWGGFGGPKGGSFNVDIAGNLIWGVYGFIRGGVGLVKWRGLQKGCKQP
# modifications: RFP tag; Dictyostelium discoideum AX4
# Columns and labels:
# [1] = system: mutant (G85R or A4V) SOD1; experiment: Aggregated mutant SOD1 in HEK293 cells (ultracentrifugation, western blot); format: cell-based, human; settings: HEK293, 48 hours, overexpression of SRCP1
# Procedure: HEK293 cells were transfected with either wild-type or mutant (G85R or A4V) SOD1 either in the presence or absence of SRCP1 for 48 hours. Cells were then collected and lysed prior to ultracentrifugation to isolate aggregated proteins. After ultracentrifugation cell protein in the pellet was suspended in Laemmli buffer and analyzed by SDS-PAGE and western blot
# HEK293 cells = experiment: Cell viability assay (CellTiter-Glo); format: cell-based, human; settings: HEK293 transfected with RFPSRCP1 alone
# Procedure: HEK293 cells were transfected as described with RFP or ^RFPSRCP1. Following transfections, cells were diluted to 500,000 cells/mL with 50,000 cells plated per well in duplicate from each transfection reaction in a 96-well plate. Serial dilutions were then performed down each column of the plate down to 390 cells per well. Cells were cultured for an additional 24 hours, then lysed using the CellTiter-Glo Kit (Promega). Luminescence was quantified between 565-700 nm wavelengths on a Spark microplate reader (Tecan) to determine cell viability.
# ^GFPHtt^ex1Q74 = experiment: GFPHttex1Q74 aggregation in transfected HEK293 cells (fluorescent/confocal microscopy, western blot, filter trap assay); format: cell-based, human
# Chain of ^GFPHtt^ex1Q74 (P42858 with tags, fused parts or gaps limits assumed): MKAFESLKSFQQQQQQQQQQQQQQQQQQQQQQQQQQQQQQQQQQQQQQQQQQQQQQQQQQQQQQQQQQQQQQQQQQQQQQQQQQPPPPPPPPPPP
# Procedure: (§1) Transfections were performed with Lipofectamine 2000 (Invitrogen by ThermoFisher Scientific) and adapted from the manufacturer's instructions. Briefly, cells were plated on either 12-well or 6-well plates and transfected at 50-70% confluency. For 12-well transfections, 0.833 μg of DNA per well was mixed with 50 μl of OptiMEM (Gibco by Life Technologies) media and incubated for 5 minutes at room temperature. Lipofectamine 2000 in a 2:1, μl of lipofectamine: μg DNA ratio was mixed with 50 μl of OptiMEM media and incubated for 5 minutes at room temperature. DNA and Lipofectamine were mixed and incubated for 15 minutes at room temperature. Fresh media was added to cells prior to the addition of DNA and lipofectamine. For 6-well transfections, the same protocol is followed except that 1.25 μg of DNA per well and 100 μl of OptiMEM for dilution was used. Media was changed 24 hours post-transfection and cells were harvested 48 hours post-transfection. Prior to harvesting, HEK293 cells were washed three times with ice-cold 1×PBS. Samples were then lysed with either 150 μl of ice-cold NETN (with protease inhibitor) or 1× Laemmli Buffer and sonicated twice for 5-8 seconds.
# (§2) For proteasome inhibition, 30 hours post-transfection cells would be replenished with DMEM containing either DMSO or 10 μM MG132 (Sigma-Aldrich) for 18 hours. Prior to harvesting, HEK293 cells were washed three times with ice-cold 1×PBS and imaged by fluorescent microscopy with a 20× objective using the Evos FL Auto Imaging System. Cells were then lysed with either 150 μl of ice-cold NETN (with protease inhibitor) or 1× Laemmli Buffer and sonicated twice for 5-8 seconds.
# as §2, with “autophagy” for “proteasome”, “24” for “30”, “and treated with” for “containing”, “5 mM 3-Methyladenine” for “10 μM MG132”, “an additional 24” for “18”
# For HEK293s′, slides were prepared by placing coverslips in 6-well plates and incubating with poly-L-lysine hydrobromide (Sigma-Aldrich) for an hour at room temperature. Coverslips were rinsed with 1×PBS three times prior to plating HEK293 cells. HEK293 cells were then transfected and fixed by incubation in 4% paraformaldehyde for 20 minutes at room temperature. Coverslips were mounted with ProLong Gold Antifade reagent and imaged with a 20× objective using the Evos FL Auto Imaging System or with a 40× objective using the Leica TCS SP5 Confocal Microscope System. For confocal, Z-stack images were obtained at […] intervals at 1024×1024 pixel resolution and merged using Fiji.
# Following sonication, lysates were subjected to BCA protein assay (ThermoFisher Scientific) and prepared for loading by the addition of 4× laemmli buffer and boiling for four minutes. Samples then loaded on SDS-polyacrylamide gels, ran at 175 V, and transferred onto an Immuno-blot PVDF membrane (Biorad) overnight at 30 V. Membranes were blocked in 5% milk in TBS with 0.1% Tween (TBST) and incubated in primary antibody overnight at 4° C. Following primary, membranes were washed for 10 minutes at room temperature three times with TBST and incubated in secondary for an hour at room temperature. Membranes were then washed for 10 minutes at room temperature three times with TBST and then incubated in buffer for enhanced chemiluminescence (50 mM Na2HPO4; 50 mM Na2CO3; 10 mM NaBO3.4H2O; 250 mM luminol; 90 mM coumaric acid).
# For HEK293 lysates, BCA protein assay was used to determine protein concentration. […]
# ^GFPHtt^ex1Q23 = biological target: T1, ^GFPHtt^ex1Q23 (Homo sapiens, UniProt P42858, DUP37-38); experiment: GFPHttex1Q23 levels in transfected HEK293 cells (western blot); format: cell-based; settings: HEK293, 48 hours post-transfection
# T1 construct: encoding pEGFP huntingtin exon-1 with 23 (^GFPHtt^ex1Q23) or 74 (^GFPHtt^ex1Q74) glutamines; host or cells: HEK293
# T1 sequence (P42858 with tags, fused parts or gaps DUP37-38): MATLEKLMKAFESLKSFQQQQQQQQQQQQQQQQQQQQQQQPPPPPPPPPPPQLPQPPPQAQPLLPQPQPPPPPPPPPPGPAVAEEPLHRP
# Procedure: as §1
# Following sonication, lysates were subjected to BCA protein assay (ThermoFisher Scientific) and prepared for loading by the addition of 4× laemmli buffer and boiling for four minutes. […]
# [2] = HEK293, co-expression, fluorescent microscopy
molecule,measurement,setting,value
B1,levels of aggregated mutant SOD1,[1],reduces the levels of aggregated mutant SOD1
same,toxicity (viability by CellTiter-Glo),HEK293 cells,did not display any toxicity
same,polyQ aggregation under proteasome inhibition,"^GFPHtt^ex1Q74; HEK293, SRCP1 in the presence of proteasome inhibition",prevented polyQ aggregation
same,"levels of monomeric, soluble GFPHttex1Q74","^GFPHtt^ex1Q74; HEK293, co-expression","no effect on the levels of monomeric, soluble"
same,soluble GFPHttex1Q74 levels under autophagy inhibition,"^GFPHtt^ex1Q74; HEK293, co-expression of RFPSRCP1 plus 5 mM 3-MA",did not lead to a significant increase in soluble
same,soluble GFPHttex1Q74 under proteasome inhibition,"^GFPHtt^ex1Q74; HEK293, co-expression of RFPSRCP1 plus proteasome inhibitor, compared to proteasome inhibition alone",even further increase in the amount of soluble
same,number of GFPHttex1Q74 puncta,^GFPHtt^ex1Q74; [2],significantly decreases the number of puncta
same,size of GFPHttex1Q74 puncta,^GFPHtt^ex1Q74; [2],significantly decreases ^GFPHtt^ex1Q74 puncta size
same,amount of GFPHttex1Q74 aggregates,"^GFPHtt^ex1Q74; HEK293, co-expression, SDS-PAGE, filter trap assay, confocal microscopy",greatly reduced the amount of ^GFPHtt^ex1Q74 aggregates
same,levels of GFPHttex1Q23,^GFPHtt^ex1Q23,did not alter the levels of
